Source: publication doi:10.1101/2020.07.17.208231, “UMP inhibition and sequential firing in aspartate transcarbamoylase open ways to regulate plant growth” (bioRxiv, 2020)
Numbering of substitutions follows the chain as printed. Numbers in names are those of the source.

B1: Arabidopsis aspartate transcarbamoylase, construct spanning aa 82-390 (atATC) (enzyme, Arabidopsis thaliana, UniProt P49077 82-390, looked up)
chain: FELSDVIEGKQFDREMLSAIFDVAREMEKIEKSSSQSEILKGYLMATLFYEPSTRTRLSFESAMKRLGGEVLTTENAREFSSAAKGETLEDTIRTVEGYSDIIVMRHFESGAARKAAATANIPVINAGDGPGEHPTQALLDVYTIQSEIGKLDGISVALVGDLANGRTVRSLAYLLAKFKDVKIYFVSPEIVKMKDDIKDYLTSSGVEWEESSDLMEVASKCDVVYQTRIQRERFGERLDLYEAARGKYIVDKDLLGVMQKKAIIMHPLPRLDEITADVDADPRAAYFRQAKNGLFIRMALLKLLLVGW
notes: aspartate transcarbamoylase (ATC; pyrB; At3g20330), Arabidopsis thaliana, aa 82-390 of the 390 aa precursor, i.e. without the N-terminal chloroplast transit peptide; Homotrimer; As purified it carries UMP captured during expression; a UMP-freed form was also made; also called WT; recombinant ATC; source: E. coli BLR(DE3)-pLysS, purified (Ni-sepharose, size-exclusion chromatography); not shown: …
B2: atATC mutant F161A (enzyme, Arabidopsis thaliana, UniProt P49077 82-390, looked up)
chain: B1 chain with F80A
notes: aspartate transcarbamoylase (ATC; pyrB; At3g20330), Arabidopsis thaliana, aa 82-390 of the 390 aa precursor, with F161A in the CP-loop; Same construct as m1 with the point mutation F161A, made by site-directed mutagenesis; also called atATC-F161A; source: E. coli BLR(DE3)-pLysS, purified (Ni-sepharose, size-exclusion chromatography); not shown: 2.6 kDa fusion tag (from a modified pET28a plasmid)

Assays:
[1] = biological target: the molecule itself; assay: SEC-MALS; 400 ul purified protein at 1.4 mg/ml on Superdex 200 10/300 in GF buffer (20 mM Tris pH 7.0, 0.1 M NaCl, 2% glycerol, 0.2 mM TCEP); also the UMP-freed sample and the sample pre-incubated with PALA (Supplementary Fig. 4)
[2] = biological target: the molecule itself; assay: crystal structure; sitting-drop vapor diffusion at room temperature, PEG 3350 conditions; with UMP, apo, with PALA, with PALA and CP, with CP; molecular replacement with PDB 5G1O

Protein | stoichiometry N [1] | binding result [2]
B1 | 3 | –
B2 | – | binds
